22 sequences from a protein production outcome set (Wang et al. 2014) can be followed below.

This series is described as follows: label from the status in PepcDB records.
With “MRMENQKDLQENYLKVLERVELGSRVSGTVVNIMKDYVLVDIGYKSEGFIKIEEFENVPQVGDRLEAIVVRIGGELGLILSVEKLNSLNFQDKVYEYIQNKKIIKGKVLVELPNGYKIQINENVSGFMPFYLSSKSKDEKLKRGSVVEFYILEASEADGLRLILDRRTLEKERDLAKRIELVSSYNEEDVVDGVVERITEYGAIVKIKNFVTGILHKRNIAFNQVENVEDFVRVGDKLKLKIIKINPQTGKMELSLKALKANPWDSVDVKYKIDSIVKGKVVKILPFGAVIELDSELSGFLHISNFSWIRVVKSPQELIKLGQIVEVKILEIDKENQKISLGIKQINENPWERLTEKYPIGRVVQGVVTNITKTGAFVNIEEGIDAYVSKFDISWLEEIDPEEYFKIGDLVNGKVLEVDKRKRNVRLGIKQLEESPWEDFSKSYKKGDTIEVEIVEKKSKGFQVRVYNKIMGFISKIQLGDTKESSLETFEKLNVGDKLKVVITSIDSKDKSVLLSYREYENQRSREEISSYLFKGNDEESYKPFENLLKRDELEHHHHHH”, the protein production result was “not failed”.

Regarding “PIKQSFLLKRSGNSLNKEWKKKYVTLSSNGFLLYHPSINDYIHSTHGKEMDLLRTTVKVPGKRPPRAISAFGPSASINGLVKDMSTVQMGEGLEATTPMPSPSPSPSSLQPPPDQTSKHLL”, the protein production result is “failed”. With “MSEQRQDKNLLSEPHKTESDEIEIDLVDIFRKIIAIRRKLYKAIGVGFIIGMIVAVSIPKQYTVKVTLSPEMGSSKGGNGLAGLAASFLGSSATTGEVSDALNASLSSDIVSSTPFLLELLDMKVALSDERTDITLMDYLDRQSSPWWNYVIGLPGMVIGGVKSLFNSDDNDNSLNKVKSGTIELTKEEGIKVNVLKKNISASVDKKTAITSVSVTLQDPKVTAVVADSVVHKLQECIVGYRISKAEEDCIYLEKLYKERQQEYYVAQKKYADYVDTHDNLILQSVRAEQERLQNDMNLAYQVYSQVANQLQVARAKVQEEKPVFAVIEPAVVPQHASSIGLRIYVLLFIFLSVCYTISWNLLGKKIRYILKGSKENQQ” the entry was “failed”; with “MDIIPILLLAAGQSRRMGGADKLMQEIDGMPLLRRTALRAIPVAPVIAALPPAPHPRHGALVGLTLDIVEVPDAAEGMNASLRRAVAALPPEAPAAMILLADLPDLTESDLNTVRRAVDFSQKNLIWRGATEDGQPGHPVVFHRCLFPQLLALRGDQGAQPLVRDHADRVALVPLPGQHARTDLDTPEAWADWRARQQ”, “failed”; with “MRRTRRPRFVLMNKMDDLNLHYRFLNWRRRIREIREVRAFRYQERFKHILVDGDTLSYHGNSGEVGCYVASRPLTKDSNYFEVSIVDSGVRGTIAVGLVPQYYSLDHQPGWLPDSVAYHADDGKLYNGRAKGRQFGSKCNSGDRIGCGIEPVSFDVQTAQIFFTKNGKRVGSTIMPMSPDGLFPAVGMHSLGEEVRLHLNAELGREDDSVMMVDSYEDEWGRLHDVRVCGTLLEYLGKGKSIVDVGLAQARHPLSTRSHYFEVEIVDPGEKCYIALGLARKDYPKNRHPGWSRGSVAYHADDGKIFHGSGVGDPFGPRCYKGDIMGCGIMFPRDYILDSEGDSDDSCDTVILSPTARAVRNVRNVMYLHQEGEEEEEEEEEEEDGEEIEPEHEGRKVVVFFTRNGKIIGKKDAVVPSGGFFPTIGMLSCGEKVKVDLHPLSG”, “not failed”. The result for “MFVLKNFKIVFSYFPIVLQYILNVALICLGVVLSVFLMKEVIQFMQELKLDGNESSYHLIDSIVVFFLYFEFIVMIIKYFQMNFHFPLRYFIYIGITAIVRLIIIDHDSPLDLLLYACAIFVLISALFIANSKMMRWDLE” reads “failed”; that for “MAETNTATSAVNAQITDAVTQVNTKVVGETPAMAMGNLLMSTSHALSNTAHNATAAQQQGQITMQAATVQGVNSLMSVSSAVIGRSSEEVIEKG”, “failed”; that for “DIEALTLLEIADPIREDAAETLEYLRSEDVTLKIISGDNPVTVSHIAHQAGFADYQSYIDCSKVSDEELEALAEDTAIFGRVSPHQKKLLIQTLNANGHTTAMTGDGVNDILALREADCSIVMAEGDPATRQIANLVLMDSEFKDIPE”, “failed”.

Regarding “MTIATIDIGGTGIKFASLTPDGKILDKTSISTPENLEDLLAWLDQRLSEQDYSGIAMSVPGAVNQETGVIDGFSAVPYIHGFSWYEALSSYQLPVHLENDANCVGLSELLAHPELENAACVVIGTGIGGAMIINGRLHRGRHGLGGEFGYMTTLAPAEKLNNWSQLASTGNMVRYVIEKSGHTDWDGRKIYQEAAAGNILCQEAIERMNRNLAQGLLNIQYLIDPGVISLGGSISQNPDFIQGVKKAVEDFVDAYEEYTVAPVIQACTYHADANLYGALVNWLQEEKQW”, the protein production entry is “not failed”. Turning to “MTIIDDGKLKKAITAASLGNAMEWFDFGVYGFVAYALGKVFFPDANPSVQMIAALGTFSVPFLIRPLGGLFFGMLGDKYGRQKILAITIVIMSISTFCIGLIPSYATIGIWAPILLLLCKMAQGFSVGGEYTGASIFVAEYSPDRKRGFMGSWLDFGSIAGFVMGAGVVVLISSVVGEQNFLDWGWRIPFFLALPLGIIGLYLRHALEETPAFQQHVDTMEQGDREGLQDGPKVSFKEIATKHWRSLLTCIGLVISTNVTYYMLLTYMPSYLSHNLHYSEDHGVLIIIAIMVGMLFVQPVIGMLSDRFGRRPFILIGSVALFALSIPAFIMINSNVTGLIFAGLLLLAVVLNCFIGVMASSLPAMFPTHIRFSALASAFNISVLIAGLTPTLAAWLVETTQNLMMPAYYLMVIAVVGMATGLSMKETANRPLKGATPAASDIQEAKEILGEHYDNIEQKIEDIDQEIADLQAKRSRLVQQHPRIND”, the protein production result is reported as “failed”. With “MIRVMATGVFDILHLGHIHYLKESKKLGDELVVVVARDSTARNNGKIPIFDENSRLALISELKVVDRAILGHEGDMMKTVIEVKPDIITLGYDQKFDEAELQSKINKLGITVKIVRISKYDGQLNSSSSVRKKIMELIGERY”, the protein production result is listed as “not failed”. Turning to “MRKRIFWLLPDLASARRTMDDLLLARIENSHIHFVGRDGADMTGLHEANLFQTSDIVHAAEMGLMVGGGVGIVAGVVVAMFPIVSDSPQWGLVGVLAVLGAVFGAWAASMIGSSAPNSRLRSFEKDIEAGKLLLMVDVPRGRVEEVEALLQKAHPEASFAGLDPAVPAFP”, the protein production result is “failed”. With “MRLLAVFVSSRLSPEDPLYARWVRYGEVLAEEGFGLACGGYQGGMEALARGVKAKGGLVVGVTAPAFFPERRGPNPFVDLELPAATLPQRIGRLLDLGAGYLALPGGVGTLAELVLAWNLLYLRRGVGRPLAVDPYWLGLLKAHGEIAPEDVGLLRVVADEEDLRRFLRSL” the entry was “not failed”; with “MAIMRHGLAASVMGTALAMVVAVLPAGCANGQVGEANRPGTTPPSEIALAPSGLGSYLAARHAEAEGDTEAAAAFYLTALADDPDNLNLLRRAYFFNAVEGKVGEAAELASRLMVSDPTATIAPLVISADLAKRGQMREAATLINGQNRQGLNSFLVPVALAWARAGAGDAGGAMTALDELSKNAGYATLRALHGALLQEQLGNKAKAGELYEAYVKGGERPSLRGVQLAGGFFVRTGQAARARALAADYSQRFPDSLLLDNAVAGFAEGGTPPAPEVGTAKDGMAELYYGTASLLADNDLQTATMFNRLALHLRPDFPLAQLLLGQLLAGQNRHDDAIAAYRGIESHDTLMLAAGLAEAESLRAQGKIDDAVVEFDKLAAHFPSRPDPLIEKGDLLRQDQRFAEAATAYSAAIARMGAPDPRHWAVYFGRGVAYERTDRWPLAEQDFQTALRLNPDQPFVLNYLGYSWLDNGINVDQAKQLIERAVAQRPKDGYIIDSLGWAHFRLGEYAEAVGILERAIHETPDDATINDHLGDAYWMVGRRLEARYQWERALSLADDADLSASIQKKLDTGLSPPSPVVPRSAGRPAERQPTSATP”, “failed”; with “MKKSKRKNAQAQEAQETEVLVQEEAEELPEFPEGEPDPDLEDPDLTLEDDLLDLPEEGEGLDLEEEEEDLPIPKISTSDPVRQYLHEIGQVPLLTLEEEVELARKVEEGMEAIKKLSEITGLDPDLIREVVRAKILGSARVRHIPGLKETLDPKTVEEIDQKLKSLPKEHKRYLHIAREGEAARQHLIEANLRLVVSIAKKYTGRGLSFLDLIQEGNQGLIRAVEKFEYKRRFKFSTYATWWIRQAINRAIADQARTIRIPVHMVETINKLSRTARQLQQELGREPTYEEIAEAMGPGWDAKRVEETLKIAQEPVSLETPIGDEKDSFYGDFIPDEHLPSPVDAATQSLLSEELEKALSKLSEREAMVLKLRKGLIDGREHTLEEVGAFFGVTRERIRQIENKALRKLKYHESRTRKLRDFLD”, “not failed”.

For the sequence “MGNSQRQSEEIEAMAAIYGEEWCVIDENAKIFCIRVTDFMDDPKWTLCLQVMLPSEYPGTAPPSYQLNAPWLKGQERADLSNSLEEIYVHNMGESILYQWVEKIRDALIQKSQITEP”, the protein production result is on record as “not failed”. With “MPQTKQPNFLFLMADQLTAFALRMYGNGVCRTPNLDRLAARSTRFANMYCNFPLCAPSRVAMLTGRLPSSVGVYDNASEFSAEVPTFLHHLALAGYSTILSGKMHFVGPEQHHGFQERLTTDIYPSDFGWTPDWREEIPIAPTGMNMRSVIEAGECRRSMQIDYDDDVVYRGVQKIYDLGRLHRDRPFFLAVSMTHPHNPYVSTREFLDLYRPEDIDMPAVPPIPFAQQDPHSQRLWYMFRQDEYDVSDAHVRAARHAYYAMVSYVDAQVGRMLDALQAMDLDESTVVVFTADHGDMLGERGLWYKWVHFDPAVRIPLLISAPGRTRPAVRHELASLVDIFPTMLELAGVSVPDDGASPPPDGRSLAQGLGVSQDEPTGVVYGEMNGEGAHAPCLAVRQGWWKLVVAEGDPPLLFNLQDDPHELRNLAGQPATRDIERQLTALVQARWDARRLHQDILHSQARRRLVQQSRLQGDFPAWDYQPFTDASRQYVRAGAQSSPALVKGKLRYPPVAPVAPQHPRPARSNLPE” the entry was “failed”. The result for “MSSMGDQRGTRVYVGNLTDKVKKDDLEGEFTKYGKLNSVWIAFNPPGFAF” reads “failed”; that for “MVPDVFIEVSLVIFIAFFISLVMRMLKQPLIIGYILTGILVSPYFLNIVRFEESISTLGHYGVTILLFMVGISLNPGYFKEIGKISLITGLGQILFTFSIGFLISVFLGYSLIESMYISIALTFSSTIIIMKLISDKGDIDKLYGKISIGFLIVQDIVAMAILVLISAFNVQSGAGELLFLIISKIVLILTAIYIFTKYALSNFISYASKNQEFLFLFSLMWCFTLASLFHLLGFSSEIGALIAGIVLAIFPERYEIASKVRPLRDFFLILFFVVLGVQMTFETSGNFIIPAIILSIFVLFGNPIIVMILMGAFGYTKKTGFLAGLTVAQISEFSLIIASLGLRNGHISQEIVSMITLIGIMTIAGSSYFITYSERIYALLSNYLSIFEKKTKISEKDFKNKNTGEIILFGADRTGKNILNVIENSKERFLIIDYNPKIIKNLSKRGYNSVYGDASNLELLNELNFKESKMLISTISDIETDILLIKTILKSNKNAIIIVIAHKIEDAIKLYEEGASYVIMPHFLGSIHASLMIQKYGLNIEEFLKEKSNHIESLKKSQELFRHTK”, “failed”. The result for “KLRQWLIDQIDSGKYPGLVWENEEKSIFRIPWKHAGKQDYNREEDAALFKAWALFKGKFREGIDKPDPPTWKTRLRCALNKSNDFEELVERSQLDISDPYKVYRIVPE” reads “not failed”; that for “VNNTKVTNSEESLSVVDDFVKSVWPTAKQAASLIGLDPKLLVAQAALETGWGRFVTRDADGSSSNNLFNIKTGSHSEVESIQVKTTEYIADTPIKINASFRKYPSIEHSFHDYVSLIKGSERYQMALANAENPEIFVSELNKAGYATDPNYSNKILSIYHGDE”, “failed”; that for “SDISLLLDVANAACHKGHVADARSIYEGVLAVRPGFAPARLGQALSHAVVNEFAEAERIINEEVLAEAPEDTDAKALLGLTYFLAGRDEEARDVLRPVAEGDTPAAYVARG”, “failed”.
